± gives the standard deviation of the averaged measurements.
Columns and labels:
MCF7 = test: percentage of EdU-negative (G0-arrested) nuclei per well, 72 h; higher = more G0 arrest; conditions: reference: sequence is the full UniProt precursor, the tested protein was the secreted form or ectodomain
hTERT-HMEC = test: as above; conditions: reference: sequence is the full UniProt precursor, the tested protein was the secreted form or ectodomain
[1] = protein concentration 0.0301275 µM
[2] = protein concentration 0.301275 µM
[3] = protein concentration 0.0205 µM
[4] = protein concentration 0.0225 µM
[5] = protein concentration 0.03125 µM
[6] = protein concentration 0.3125 µM
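Further: secreted proteins added to cultured cells, EdU pulse at the end, nuclei found by Hoechst imaging, EdU status from nuclear versus surrounding ring intensity ratio, PBS as neutral control.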

Sequence	percentage of EdU-negative (MCF7; [4]) [%]	percentage of EdU-negative (MCF7; protein concentration 0.225 µM) [%]	percentage of EdU-negative (hTERT-HMEC; [4]) [%]	percentage of EdU-negative (hTERT-HMEC; protein concentration 0.225 µM) [%]	other results
MRALRDRAGLLLCVLLLAALLEAALGLPVKKPRLRGPRPGSLTRLAEVSASPDPRPLKEEEEAPLLPRTHLQAEPHQHGCWTVTEPAAMTPGNATPPRTPEVTPLRLELQKLPGLANTTLSTPNPDTQASASPDPRPLREEEEARLLPRTHLQAELHQHGCWTVTEPAALTPGNATPPRTQEVTPLLLELQKLPELVHATLSTPNPDNQVTIKVVEDPQAEVSIDLLAEPSNPPPQDTLSWLPALWSFLWGDYKGEEKDRAPGEKGEEKEEDEDYPSEDIEGEDQEDKEEDEEEQALWFNGTTDNWDQGWLAPGDWVFKDSVSYDYEPQKEWSPWSPCSGNCSTGKQQRTRPCGYGCTATETRTCDLPSCPGTEDKDTLGLPSEEWKLLARNATDMHDQDVDSCEKWLNCKSDFLIKYLSQMLRDLPSCPCAYPLEAMDSPVSLQDEHQGRSFRWRDASGPRERLDIYQPTARFCLRSMLSGESSTLAAQHCCYDEDSRLLTRGKGAGMPNLISTDFSPKLHFKFDTTPWILCKGDWSRLHAVLPPNNGRACTDNPLEEEYLAQLQEAKEY [Q6H9L7]	–	–	–	–	percentage of EdU-negative (MCF7; [1]): 24.4 ± 0.93%; percentage of EdU-negative (MCF7; [2]): 28.4 ± 1.3%; percentage of EdU-negative (hTERT-HMEC; [1]): 5.26 ± 0.1%; percentage of EdU-negative (hTERT-HMEC; [2]): 5.07 ± 0.18%
MPGPRVWGKYLWRSPHSKGCPGAMWWLLLWGVLQACPTRGSVLLAQELPQQLTSPGYPEPYGKGQESSTDIKAPEGFAVRLVFQDFDLEPSQDCAGDSVTISFVGSDPSQFCGQQGSPLGRPPGQREFVSSGRSLRLTFRTQPSSENKTAHLHKGFLALYQTVAVNYSQPISEASRGSEAINAPGDNPAKVQNHCQEPYYQAAAAGALTCATPGTWKDRQDGEEVLQCMPVCGRPVTPIAQNQTTLGSSRAKLGNFPWQAFTSIHGRGGGALLGDRWILTAAHTIYPKDSVSLRKNQSVNVFLGHTAIDEMLKLGNHPVHRVVVHPDYRQNESHNFSGDIALLELQHSIPLGPNVLPVCLPDNETLYRSGLLGYVSGFGMEMGWLTTELKYSRLPVAPREACNAWLQKRQRPEVFSDNMFCVGDETQRHSVCQGDSGSVYVVWDNHAHHWVATGIVSWGIGCGEGYDFYTKVLSYVDWIKGVMNGKN [Q9NZP8]	–	–	–	–	percentage of EdU-negative (MCF7; [3]): 25.9 ± 0.29%; percentage of EdU-negative (MCF7; protein concentration 0.205 µM): 26.4 ± 0.027%; percentage of EdU-negative (hTERT-HMEC; [3]): 6.35 ± 0.51%; percentage of EdU-negative (hTERT-HMEC; protein concentration 0.205 µM): 7.52 ± 1.6%
MALRRPPRLRLCARLPDFFLLLLFRGCLIGAVNLKSSNRTPVVQEFESVELSCIITDSQTSDPRIEWKKIQDEQTTYVFFDNKIQGDLAGRAEILGKTSLKIWNVTRRDSALYRCEVVARNDRKEIDEIVIELTVQVKPVTPVCRVPKAVPVGKMATLHCQESEGHPRPHYSWYRNDVPLPTDSRANPRFRNSSFHLNSETGTLVFTAVHKDDSGQYYCIASNDAGSARCEEQEMEVYDLNIGGIIGGVLVVLAVLALITLGICCAYRRGYFINNKQDGESYKNPGKPDGVNYIRTDEEGDFRHKSSFVI [Q9BX67]	21.3 ± 0.85	24.5 ± 2.1	4.86 ± 0.27	5.13 ± 0.74	–
MGKGDPKKPRGKMSSYAFFVQTCREEHKKKHPDASVNFSEFSKKCSERWKTMSAKEKGKFEDMAKADKARYEREMKTYIPPKGETKKKFKDPNAPKRPPSAFFLFCSEYRPKIKGEHPGLSIGDVAKKLGEMWNNTAADDKQPYEKKAAKLKEKYEKDIAAYRAKGKPDAAKKGVVKAEKSKKKKEEEEDEEDEEDEEEEEDEEDEDEEEDDDDE	23.1 ± 4.2	24.5 ± 0.87	5.16 ± 0.5	5.64 ± 0.066	–
MKPAAREARLPPRSPGLRWALPLLLLLLRLGQILCAGGTPSPIPDPSVATVATGENGITQISSTAESFHKQNGTGTPQVETNTSEDGESSGANDSLRTPEQGSNGTDGASQKTPSSTGPSPVFDIKAVSISPTNVILTWKSNDTAASEYKYVVKHKMENEKTITVVHQPWCNITGLRPATSYVFSITPGIGNETWGDPRVIKVITEPIPVSDLRVALTGVRKAALSWSNGNGTASCRVLLESIGSHEELTQDSRLQVNISGLKPGVQYNINPYLLQSNKTKGDPLGTEGGLDASNTERSRAGSPTAPVHDESLVGPVDPSSGQQSRDTEVLLVGLEPGTRYNATVYSQAANGTEGQPQAIEFRTNAIQVFDVTAVNISATSLTLIWKVSDNESSSNYTYKIHVAGETDSSNLNVSEPRAVIPGLRSSTFYNITVCPVLGDIEGTPGFLQVHTPPVPVSDFRVTVVSTTEIGLAWSSHDAESFQMHITQEGAGNSRVEITTNQSIIIGGLFPGTKYCFEIVPKGPNGTEGASRTVCNRTVPSAVFDIHVVYVTTTEMWLDWKSPDGASEYVYHLVIESKHGSNHTSTYDKAITLQGLIPGTLYNITISPEVDHVWGDPNSTAQYTRPSNVSNIDVSTNTTAATLSWQNFDDASPTYSYCLLIEKAGNSSNATQVVTDIGITDATVTELIPGSSYTVEIFAQVGDGIKSLEPGRKSFCTDPASMASFDCEVVPKEPALVLKWTCPPGANAGFELEVSSGAWNNATHLESCSSENGTEYRTEVTYLNFSTSYNISITTVSCGKMAAPTRNTCTTGITDPPPPDGSPNITSVSHNSVKVKFSGFEASHGPIKAYAVILTTGEAGHPSADVLKYTYEDFKKGASDTYVTYLIRTEEKGRSQSLSEVLKYEIDVGNESTTLGYYNGKLEPLGSYRACVAGFTNITFHPQNKGLIDGAESYVSFSRYSDAVSLPQDPGVICGAVFGCIFGALVIVTVGGFIFWRKKRKDAKNNEVSFSQIKPKKSKLIRVENFEAYFKKQQADSNCGFAEEYEDLKLVGISQPKYAAELAENRGKNRYNNVLPYDISRVKLSVQTHSTDDYINANYMPGYHSKKDFIATQGPLPNTLKDFWRMVWEKNVYAIIMLTKCVEQGRTKCEEYWPSKQAQDYGDITVAMTSEIVLPEWTIRDFTVKNIQTSESHPLRQFHFTSWPDHGVPDTTDLLINFRYLVRDYMKQSPPESPILVHCSAGVGRTGTFIAIDRLIYQIENENTVDVYGIVYDLRMHRPLMVQTEDQYVFLNQCVLDIVRSQKDSKVDLIYQNTTAMTIYENLAPVTTFGKTNGYIA	23.2 ± 1.6	22.4 ± 0.63	5.56 ± 1.9	5.79 ± 0.53	–
MFPFYSCWRTGLLLLLLAVAVRESWQTEEKTCDLVGEKGKESEKELALVKRLKPLFNKSFESTVGQGSDTYIYIFRVCREAGNHTSGAGLVQINKSNGKETVVGRLNETHIFNGSNWIMLIYKGGDEYDNHCGKEQRRAVVMISCNRHTLADNFNPVSEERGKVQDCFYLFEMDSSLACSPEISHLSVGSILLVTFASLVAVYVVGGFLYQRLVVGAKGMEQFPHLAFWQDLGNLVADGCDFVCRSKPRNVPAAYRGVGDDQLGEESEERDDHLLPM	–	–	–	–	percentage of EdU-negative (MCF7; [5]): 25.21 ± 0.13%; percentage of EdU-negative (MCF7; [6]): 24.8 ± 1.1%; percentage of EdU-negative (hTERT-HMEC; [5]): 5.26 ± 0.29%; percentage of EdU-negative (hTERT-HMEC; [6]): 5.43 ± 0.57%

From the supplement of paper PMC11316812
